These results are taken from patent US20140356383A1 (published 2014).

For orientation: EC50 means the midpoint of the concentration-response curve. A low value points to greater potency. One may read the Kd as the free concentration of one partner at which half of the binding sites on the other are occupied at equilibrium, for simple one-to-one binding. A low value points to tighter binding. By koff is commonly meant a measure of how fast the partners let go of each other. One may read the kon as a measure of how fast the partners come together.

For assay [1], the target named is T1, human guanylyl cyclase C (GCC) (human, UniProt P25092 24-1073). The assay can be described thus: cell-based or functional assay.
Assay [2] deals with T1, human guanylyl cyclase C (GCC). Description: flow cytometry, 293 GCC #2 cells, 1 µg/ml.
Assay [3] shares this target. Description: flow cytometry, 293 GCC #2 cells, 0.25 µg/ml.
For assay [4] the target is unchanged. The assay can be described thus: flow cytometry, 293 GCC #2 cells, 0.001 µg/ml.
Assay [5] has the same target. Description: flow cytometry, 293 GCC #2 cells, 0.004 µg/ml. (In flow cytometry, cells or beads pass a laser one at a time.)
Assay [6] shares this target. Description: flow cytometry, 293 GCC #2 cells, 0.016 µg/ml.
The target is the same in assay [7]. The assay can be described thus: flow cytometry, 293 GCC #2 cells, 0.063 µg/ml.
Assay [8] addresses T2, TOK107-hIg (hGCC-ECD/hIgG1 Fc) (human).
T2 construct: Expressed in HEK293 cells; also called TOK107-hIgG; TOK107-Ig
Description: ELISA against TOK107-hIg; antibody concentration for half maximal binding. (In general: ELISA stands for enzyme-linked immunosorbent assay.)

The target in assay [9] is T1, human guanylyl cyclase C (GCC). Description: FACS with GCC-expressing cells (cell line not given); antibody concentration for half maximal binding.
Assay [10] concerns the target T2, TOK107-hIg (hGCC-ECD/hIgG1 Fc). Description: SPR, BIACORE T100, 22 C; Prep A 5F9 immobilized on CM4 chip, GCC-ECD-Fc injected; 1:1 model; replicate A.
The target is the same in assay [11]. The assay can be described thus: SPR, BIACORE T100, 22 C; Prep A 5F9 immobilized on CM4 chip, GCC-ECD-Fc injected; 1:1 model; replicate B.
The target is the same in assay [12]. Description: SPR, BIACORE T100, 22 C; Prep A 5F9 immobilized on CM4 chip, GCC-ECD-Fc injected; 1:1 model; replicate C. (SPR reads the build-up and loss of mass on a sensor chip optically.)
The target is the same in assay [13]. Description: SPR, BIACORE T100, 22 C; Prep A 5F9 immobilized on CM4 chip, GCC-ECD-Fc injected; 1:1 model; replicate D.
For assay [14] the target is unchanged. The assay can be described thus: SPR, BIACORE T100, 22 C; Prep A 5F9 immobilized on CM4 chip, GCC-ECD-Fc injected; 1:1 model; replicate E.
The target is the same in assay [15]. Description: SPR, BIACORE T100, 22 C; Prep B (reference) 5F9 immobilized on CM4 chip, GCC-ECD-Fc injected; 1:1 model; replicate F.
For assay [16] the target is unchanged. The assay can be described thus: SPR, BIACORE T100, 22 C; Prep B (reference) 5F9 immobilized on CM4 chip, GCC-ECD-Fc injected; 1:1 model; replicate G.
For assay [17] the target is unchanged. Description: SPR, BIACORE T100, 22 C; Prep B (reference) 5F9 immobilized on CM4 chip, GCC-ECD-Fc injected; 1:1 model; replicate H.
Assay [18] shares this target. Description: SPR, BIACORE T100, 22 C; Prep B (reference) 5F9 immobilized on CM4 chip, GCC-ECD-Fc injected; 1:1 model; replicate I.
For assay [19] the target is unchanged. The assay can be described thus: SPR, BIACORE T100, 22 C; Prep A 5F9 immobilized, GCC-ECD-Fc injected; average of replicates A-E (95% confidence interval in brackets).
Assay [20] shares this target. The assay can be described thus: SPR, BIACORE T100, 22 C; Prep B (reference) 5F9 immobilized, GCC-ECD-Fc injected; average of replicates F-I (95% confidence interval in brackets).

T1 sequence (P25092 24-1073 limits assumed): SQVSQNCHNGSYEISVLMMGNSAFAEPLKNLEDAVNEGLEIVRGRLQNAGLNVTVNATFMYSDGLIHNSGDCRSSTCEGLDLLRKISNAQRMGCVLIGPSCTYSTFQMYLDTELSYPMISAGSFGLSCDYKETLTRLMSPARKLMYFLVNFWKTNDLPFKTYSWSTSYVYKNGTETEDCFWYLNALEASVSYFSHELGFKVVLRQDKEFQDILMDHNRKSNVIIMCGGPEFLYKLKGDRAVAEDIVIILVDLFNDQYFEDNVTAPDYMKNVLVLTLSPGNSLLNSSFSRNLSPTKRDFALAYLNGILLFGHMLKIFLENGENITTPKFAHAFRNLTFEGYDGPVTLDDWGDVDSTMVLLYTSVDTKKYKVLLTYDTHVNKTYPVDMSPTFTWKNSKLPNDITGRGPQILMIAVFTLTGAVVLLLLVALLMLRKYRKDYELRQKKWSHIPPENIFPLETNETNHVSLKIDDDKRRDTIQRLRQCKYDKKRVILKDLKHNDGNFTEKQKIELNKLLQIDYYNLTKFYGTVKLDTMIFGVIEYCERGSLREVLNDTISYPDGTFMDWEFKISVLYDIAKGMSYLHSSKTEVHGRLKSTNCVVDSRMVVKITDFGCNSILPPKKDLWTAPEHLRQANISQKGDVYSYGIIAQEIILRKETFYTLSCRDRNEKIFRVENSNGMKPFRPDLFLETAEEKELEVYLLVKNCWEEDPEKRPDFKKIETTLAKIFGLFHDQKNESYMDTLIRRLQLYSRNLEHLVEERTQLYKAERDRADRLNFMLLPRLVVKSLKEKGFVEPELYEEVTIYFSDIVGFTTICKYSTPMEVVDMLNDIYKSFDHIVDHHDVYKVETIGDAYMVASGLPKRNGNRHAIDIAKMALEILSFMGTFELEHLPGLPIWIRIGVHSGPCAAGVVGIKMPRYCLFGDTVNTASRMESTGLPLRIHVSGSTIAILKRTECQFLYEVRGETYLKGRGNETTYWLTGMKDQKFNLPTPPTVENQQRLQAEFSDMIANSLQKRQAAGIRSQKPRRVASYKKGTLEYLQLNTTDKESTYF
T2 sequence (chain, as listed by the source limits assumed): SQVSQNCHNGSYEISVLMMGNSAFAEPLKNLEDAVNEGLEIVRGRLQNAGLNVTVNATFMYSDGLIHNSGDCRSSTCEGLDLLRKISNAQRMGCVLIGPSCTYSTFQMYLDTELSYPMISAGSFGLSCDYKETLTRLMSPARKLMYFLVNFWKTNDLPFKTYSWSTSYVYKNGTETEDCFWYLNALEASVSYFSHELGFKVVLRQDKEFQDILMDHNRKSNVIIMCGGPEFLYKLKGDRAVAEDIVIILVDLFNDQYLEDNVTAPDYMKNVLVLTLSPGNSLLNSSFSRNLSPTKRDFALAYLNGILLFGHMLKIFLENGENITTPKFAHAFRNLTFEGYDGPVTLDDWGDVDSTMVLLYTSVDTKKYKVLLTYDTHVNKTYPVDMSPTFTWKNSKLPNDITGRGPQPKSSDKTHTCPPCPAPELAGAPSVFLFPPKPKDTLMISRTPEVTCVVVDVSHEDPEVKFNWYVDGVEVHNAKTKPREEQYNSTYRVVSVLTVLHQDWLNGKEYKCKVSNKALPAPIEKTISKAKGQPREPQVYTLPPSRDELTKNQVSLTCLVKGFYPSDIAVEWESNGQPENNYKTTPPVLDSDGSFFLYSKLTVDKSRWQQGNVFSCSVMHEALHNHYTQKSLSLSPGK

B1: 5F9 vcMMAE immunoconjugate (antibody, V domains shown)
VH: QVQLQQWGAGLLKPSETLSLTCAVFGGSFSGYYWSWIRQPPGKGLEWIGEINHRGNTNDNPSLKSRVTISVDTSKNQFALKLSSVTAADTAVYYCARERGYTYGNFDHWGQGTLVTVSS
VL: EIVMTQSPATLSVSPGERATLSCRASQSVSRNLAWYQQKPGQAPRLLIYGASTRATGIPARFSGSGSGTEFTLTIGSLQSEDFAVYYCQQYKTWPRTFGQGTNVEIK
modifications: mc-vc-MMAE linked to cysteines freed by partial reduction of interchain disulfides (outside this variable domain); average drug loading about 4 (3.6 in the described preparation)
notes: also called MLN0264; ML0264
With B1, the “LD 50 (nM), direct cytotoxicity, CT 26 GCC #2.5 cells” value (“LD 50 (nM) … CT 26 GCC #2.5 cells” for short) in assay [1] was greater than 500 nM. For the same molecule, in assay [1], the “LD 50 (nM), direct cytotoxicity, CT 26 GCC #32 cells” value (from here on “LD 50 (nM) … CT 26 GCC #32 cells”) was determined as 267 nM. In assay [1], the “LD 50 (nM), direct cytotoxicity, HT 29 GCC #2 cells” value (“LD 50 (nM) … HT 29 GCC #2 cells” for short) was determined as 24.1 nM. Besides, the “LD 50 (nM), direct cytotoxicity, HT 29 GCC #5 cells” value (“LD 50 (nM) … HT 29 GCC #5 cells” below) in [1] is 654 nM. The “LD 50 (nM), direct cytotoxicity, HT 29 GCC #18 cells” value (shortened to “LD 50 (nM) … HT 29 GCC #18 cells”) in assay [1] is 555 nM. Further, in assay [1], the “LD 50 (nM), direct cytotoxicity, HT29 GCC#5 cells” value amounted to 0.59 nM. The MFI in assay [2] was found to be 7420; in [3], 7300; in assay [4], 445; in assay [5], 696; in assay [6], 1790; in assay [7], 4850.

B2: anti-GCC human monoclonal antibody 5F9 (antibody, V domains shown)
VH: B1 VH
VL: B1 VL
notes: also called mAb 5F9; MAb 5F9 (Prep A)
Regarding B2, the MFI in assay [2] was 8030; in assay [3], 7820; in [4], 500; in assay [5], 937; in [6], 2460; in assay [7] it was 6620. The concentration for a half-maximal effect (EC50) in assay [8] came to 36.5 nM; in assay [9] it was 1.24 nM. Moreover, the dissociation constant Kd was 0.112 nM in [10]; 0.0917 nM in assay [11]; 0.201 nM in assay [12]; 0.091 nM in [13]; 0.184 nM in assay [14]; 0.0789 nM in assay [15]. For the same molecule, the Kd in assay [16] was determined as 0.103 nM; in assay [17], 0.105 nM; in assay [18], 0.127 nM; in [19] it was 0.136 nM; in [20], 0.103 nM. Besides, the koff worked out at 1.19e-05 s⁻¹ in assay [10]; 1.1e-05 s⁻¹ in assay [11]; 2.15e-05 s⁻¹ in [12]; 1.11e-05 s⁻¹ in assay [13]; 1.77e-05 s⁻¹ in assay [14]; 7.64e-06 s⁻¹ in assay [15]. For the same molecule, the dissociation rate constant (koff) in assay [16] was determined as 1.24e-05 s⁻¹; in assay [17] it was 9.57e-06 s⁻¹; in assay [18] it was 1.54e-05 s⁻¹; in assay [19], 1.46e-05 s⁻¹; in assay [20], 1.13e-05 s⁻¹. For the same molecule, the on-rate (kon) in [10] was 106000 M⁻¹ s⁻¹; in assay [11], 120000 M⁻¹ s⁻¹; in [12], 107000 M⁻¹ s⁻¹; in assay [13] it was 122000 M⁻¹ s⁻¹; in assay [14], 96400 M⁻¹ s⁻¹; in [15] it was 96800 M⁻¹ s⁻¹. In addition, the on-rate (kon) is 120000 M⁻¹ s⁻¹ in assay [16]; 90900 M⁻¹ s⁻¹ in assay [17]; 121000 M⁻¹ s⁻¹ in [18]; 110000 M⁻¹ s⁻¹ in assay [19]; 107000 M⁻¹ s⁻¹ in assay [20].

B3: 5F9-vc-MMAF (antibody, V domains shown)
VH: B1 VH
VL: B1 VL
modifications: mc-vc-MMAF linked to cysteines freed by partial reduction of interchain disulfides (outside this variable domain); average drug loading about four
Consider B3, for which the “LD 50 (nM) … CT 26 GCC #2.5 cells” value in assay [1] is greater than 10 nM. The “LD 50 (nM) … CT 26 GCC #32 cells” value in assay [1] stood at 0.004 nM. For the same molecule, in [1], the “LD 50 (nM) … HT 29 GCC #2 cells” value worked out at 0.127 nM. Further, the “LD 50 (nM) … HT 29 GCC #5 cells” value in assay [1] was 563 nM. Also, the “LD 50 (nM) … HT 29 GCC #18 cells” value in assay [1] was greater than 10000 nM. Also, the MFI in assay [2] worked out at 7780; in [3], 7560; in [4], 440; in [5] it was 707; in assay [6], 1500; in assay [7] it was 4830.

B4: 5F9-mc-MMAF (antibody, V domains shown)
VH: B1 VH
VL: B1 VL
modifications: mc-MMAF (non-cleavable linker) linked to cysteines freed by partial reduction of interchain disulfides (outside this variable domain); average drug loading about four
Take B4: in assay [1], the “LD 50 (nM) … CT 26 GCC #2.5 cells” value was greater than 10 nM; the “LD 50 (nM) … CT 26 GCC #32 cells” value was 0.064 nM; the “LD 50 (nM) … HT 29 GCC #2 cells” value was 3.1 nM; the “LD 50 (nM) … HT 29 GCC #5 cells” value was greater than 10000 nM. For the same molecule, in assay [1], the “LD 50 (nM) … HT 29 GCC #18 cells” value is greater than 10000 nM and the “LD 50 (nM), direct cytotoxicity, HT29 GCC#5 cells” value is greater than 10 nM. The molecule also came in with an MFI in assay [2] of 7580. The MFI in assay [3] worked out at 7400. In addition, the MFI in assay [4] amounted to 483. The MFI in [5] was 776. The same molecule had an MFI in [6] of 2110. For the same molecule, in assay [7], the MFI is 5350.
